Laboratory results reported in patent US20260265800A1, “NEW FUCOSYLTRANSFERASES FOR IN VIVO SYNTHESIS OF LNFP-III” (DSM IP Assets B.V., priority 2022, published 2026).
Values joined by “and” are separate entries in the source; they are usually repeats but may differ in a detail not shown here. Identical values can stand only once.

B1: FutB: prior art α-1,3-fucosyltransferase from Helicobacter pylori, GenBank WP_000487430.1, SEQ ID NO: 6 (protein, listed as Helicobacter pylori)
chain: MFQPLLDAFIESASIEKMVSKSPPPPLKIAVANWWGDEEIKEFKKSVLYFILSQRYAITLHQNPNESSDLVFSNPLGAARKILSYQNTKRVFYTGENESPNFNLFDYAIGFDELDFNDRYLRMPLYYAHLHYEAELVNDTTAPYKLKDNSLYALKKPSHHFKENHPNLCAVVNDESDLLKRGFASFVASNANAPMRNAFYDALNSIEPVTGGGSVRNTLGYKVGNKSEFLSQYKFNLCFENSQGYGYVTEKILDAYFSHTIPIYWGSPSVAKDFNPKSFVNVHDFNNFDEAIDYIKYLHTHPNAYLDMLYENPLNTLDGKAYFYQDLSFKKILDFFKTILENDTIYHNNPFIFYRDLHEPLISIDDLRVNYDDLRVNYDDLRVNYDDLRVNYDDLRVNYDDLRVNYDDLRVNYDDLRVNYDDLRVNYDDLRVNYDRLLQNASPLLELSQNTTFKIYRKAYQKSLPLLRTIRRWVKK
B2: FucT109: prior art α-1,3-fucosyltransferase from Bacteroides fragilis ATCC 25285, GenBank CAH09151.1, SEQ ID NO: 42 (protein, listed as Bacteroides fragilis)
chain: MCDCLSIILLVKMKKIYLKFVDFWDGFDTISNFIVDALSIQYEVVLSNEPDYLFYSCFGTSHLEYDCIKIMFIGENIVPDFNVCDYAIGFNYIDFGDRYLRLPLYAIYDGFSNLQNKKIDVNKALDRKFCSIVVSNNKWADPIRETFFKLLSSYKKVDSGGRAWNNIGGPVDNKLDFISQYKFNIAFENSRVLGYTTEKIMEPMQVNSIPVYWGNPLVGKDFNVDSFVNAHDFDSLERLVEYIIELDSSKDKYLEMLEKPWLLDKTYLDWKQLLLNFINNIMMKSYKDAKYLVNYGHAGKYRNEQRFWGRCERKFKLQRIIEYYSQLFDRK
B3: CafD: prior art α-1,3-fucosyltransferase from Helicobacter hepaticus ATCC 51449, GenBank AAP76669.1, SEQ ID NO: 41 (protein, listed as Helicobacter hepaticus)
chain: MKDDLVILHPDGGIASQIAFVALGLAFEQKGAKVKYDLSWFAEGAKGFWNPSNGYDKVYDITWDISKAFPALHIEIANEEEIERYKSKYLIDNDRVIDYAPPLYCYGYKGRIFHYLYAPFFAQSFAPKEAQDSHTPFAALLQEIESSPSPCGVHIRRGDLSQPHIVYGNPTSNEYFAKSIELMCLLHPQSSFYLFSDDLAFVKEQIVPLLKGKTYRICDVNNPSQGYLDLYLLSRCRNIIGSQGSMGEFAKVLSPHNPLLITPRYRNIFKEVENVMCVNWGESVQHPPLVCSAPPPLVSQLKRNAPLNSRLYKEKDNASA
B4: Camp1: α-1,3-fucosyltransferase from Campylobacter sp., GenBank MBP3676691.1, SEQ ID NO: 1 (protein, listed as Campylobacter sp.)
chain: MRKDLVIIRVDGGIASQIAFVALGLEFESRGYKVKYDLSWFDEFGNGFYNEQNGYDRSYNITFDIPKAFPDIKCEIASRDEIEIYRKKYFVDNEEVIELKPPLYVGGYLGRHFDFKYRDFFAKHFNPKEIQESDSECKILLDNILSNHSCGVHIRMGDLSKEHVVYGKPLSVEYFLKNIQLVLQIEPKSKFYFFSDDLEWVKKKVIPSLHSIEYEICNVNSVEKGYLDLYLLSRCKIIIASQGSMGKYAKMLALDSKTLLITPNKNAPMENMMMVNWADSYESFEEKQIQKPLSWRNKIRLKIYKKLRNKLLQKGIL
B5: PmglB_70UTR_SD8: promoter sequence, SEQ ID NO: 16 (nucleic acid)
DNA: TGCGTCGCCATTCTGTCGCAACACGCCAGAATGCGGCGGCGATCACTAACTCAACAAATCAGGCGATGTAACCGCTTTCAATCTGTGAGTGATTTCACAGTATCTTAACAATGTGATAGCTATGATTGCACCGTGCCTACAAGCATCGTGGAGGTCCGTGACTTTCACGCATACAACAAACATTAACCAAGAGAAAAACAGCT
B6: PmglB_70UTR_SD10: promoter sequence, SEQ ID NO: 17 (nucleic acid)
DNA: TGCGTCGCCATTCTGTCGCAACACGCCAGAATGCGGCGGCGATCACTAACTCAACAAATCAGGCGATGTAACCGCTTTCAATCTGTGAGTGATTTCACAGTATCTTAACAATGTGATAGCTATGATTGCACCGTGCCTACAAGCATCGTGGAGGTCCGTGACTTTCACGCATACAACAAACATTAACCAACTGAGAAACAGCT
B7: PmglB_54UTR: promoter sequence, SEQ ID NO: 18 (nucleic acid)
DNA: TGCGTCGCCATTCTGTCGCAACACGCCAGAATGCGGCGGCGATCACTAACTCAACAAATCAGGCGATGTAACCGCTTTCAATCTGTGAGTGATTTCACAGTATCTTAACAATGTGATAGCTATGATTGCACCGTGCCTACAAGCATCGTGGAGGTCCGTGACTTTCACGCATACAACAAACATTAACAAAAACCGGAGATACC
B8: Plac_70UTR: promoter sequence, SEQ ID NO: 19 (nucleic acid)
DNA: TGTGAGTTAGCTCACTCATTAGGCACCCCAGGCTTTACACTTTATGCTTCCGGCTCGTATGTTGTGTGGAATGCCTACAAGCATCGTGGAGGTCCGTGACTTTCACGCATACAACAAACATTAACCAAGGAGGAAACAGCT

Experiments:
[1] = test system: LNnT; assay: Deep well assay: HMO profile of LNnT-producing strains expressing α-1,3-fucosyltransferases (HPLC); type: cell-based, Escherichia coli; settings: for LNFP-III, % of total HMO molar (mM) content produced by each strain: lactose as substrate, FT copy nr as in table 7 (enzyme names in text: single copy)
Procedure: Deep Well Assays in the current examples were performed as originally described to Lv et al (Bioprocess Biosyst Eng 20 (2016) 39:1737-1747) and optimized for the purposes of the current invention. More specifically, the strains disclosed in the present example were screened in 96 deep well plates using a 4-day protocol. During the first 24 hours, precultures were grown to high densities (OD600 up to 5) and subsequently transferred to a medium that allowed induction of gene expression and product formation.
More specifically, during day 1, fresh precultures were prepared using a basal minimal medium (BMM) (pH 7.0) supplemented with magnesium sulphate (0.12 g/L), thiamine (0.004 g/L) and glucose (5.5 g/L). Basal Minimal medium had the following composition: NaOH (1 g/L), KOH (2.5 g/L), KHzPO4 (7 g/L), NH&HzPO4 (7 g/L), Citric acid (0.5 g/l), trace mineral solution (5 mL/L). The trace mineral stock solution contained; ZnSO~*7H~O 0.82 g/L, Citric acid 20 g/L, Mn$04*H&O 0.98 g/L, FeSO4*7H&O 3.925 g/L, CuSO4*5H~O 0.2 g/L. The pH of the Basal Minimal Medium was adjusted to 7.0 with 5 N NaOH and autoclaved. The precultures were incubated for 24 hours at 34° C. and 1000 rpm shaking and then further transferred to 0.75 ml of a new BMM (pH 7,5) to start the main culture. The new BMM was supplemented with magnesium sulphate (0.12 g/L), thiamine (0.02 g/L), a bolus of glucose solution (0.1-0.15 g/L) and a bolus of lactose solution (5-20 g/L) Moreover, a 20% stock solution of sucrose (40-45 g/L) or maltodextrin (19-20 g/L) was provided as carbon source, accompanied by the addition of a specific hydrolytic enzyme, sucrose hydrolase or glycoamylase, respectively, so that glucose was released at a rate suitable for carbon-limited growth and similar to that of a typical fed-batch fermentation process. The main cultures were incubated for 72 hours at 28° C. and 1000 rpm shaking. For the analysis of total broth, the 96 well plates were boiled at 100° C., subsequently centrifuged, and finally the supernatants were analysed by HPLC.
Genetically modified cells expressing individual α-1,3-fucosyltransferase enzymes were screened for their ability to produce the fucosylated HMO LNFP-III.
Genetically modified strains expressing the six individual α-1,3-fucosyltransferases (table 5) were generated as described in the “Method” section. The cells were screened in the deep well assay setup as described in the “Method” section.
The molar content of individual HMOs produced by the strains was measured by HPLC.
The results of the LNFP-III producing cells are shown in table 7 as the fraction of the total molar HMO content (in percentage, %) produced by each strain.

[2] = test system: β-galactosidase activity; settings: LacZ assay, cited from earlier work; for % Activity relative to PglpF: PglpF as positive reference, a range indicates results from multiple assays
[3] = FT copy nr as in table 7, listed as FutT109

Row | Molecule | LNDFH-III, % of total HMO molar (mM) content produced by each strain ([1]; FT copy nr as in table 7) | LNnT, % of total HMO molar (mM) content produced by each strain ([1]; FT copy nr as in table 7) [%] | pLNnH, % of total HMO molar (mM) content produced by each strain ([1]; FT copy nr as in table 7) [%] | LNFP-III, % of total HMO molar (mM) content produced by each strain [1] | % Activity relative to PglpF [2] | Strength [2] | further results
1 | B1 | 0.0 ± 0.0% | 78.9 ± 0.4 | 13.2 ± 0.2 | 6% and 6.2 ± 0.5% | – | – | –
2 | B2 | – | 28.7 ± 1.6 | 0.8 ± 0.7 | 26% | – | – | 3-FL, % of total HMO molar (mM) content produced by each strain ([1]; FT copy nr as in table 7): 2.0 ± 1.8%; LNFP-VI, % of total HMO molar (mM) content produced by each strain ([1]; FT copy nr as in table 7): 18%; LNDFH-III, % of total HMO molar (mM) content produced by each strain [1, 3]: 24% and 23.9 ± 1.8%; LNFP-VI, % of total HMO molar (mM) content produced by each strain [1, 3]: 18.0 ± 2.6%; LNFP-III, % of total HMO molar (mM) content produced by each strain ([1]; listed as FutT109): 26.6 ± 3.5%
3 | B3 | 0.0 ± 0.0% | 81.9 ± 1.3 | 18.1 ± 1.3 | 0.0 ± 0.0% | – | – | 3-FL, % of total HMO molar (mM) content produced by each strain ([1]; FT copy nr as in table 7): 0.0 ± 0.0%; LNFP-VI, % of total HMO molar (mM) content produced by each strain ([1]; FT copy nr as in table 7): 0.0 ± 0.0%; production of fucosylated HMOs (fucosylation of LNnT or lactose) ([1]; single copy): does not produce any fucosylated HMOs
4 | B4 | do not produce any | – | – | – | – | – | –
5 | B5 | – | – | – | – | 291% | high (A regulatory element with an activity above 10,000 MU is considered strong) | –
6 | B6 | – | – | – | – | 233-281% | high (A regulatory element with an activity above 10,000 MU is considered strong) | –
7 | B7 | – | – | – | – | 197% | high (A regulatory element with an activity above 10,000 MU is considered strong) | –
8 | B8 | – | – | – | – | 182-220% | high (A regulatory element with an activity above 10,000 MU is considered strong) | –
